Experimental data from US20250281600A1 (published 2025).

Target: SARS-COV-2 Spike Protein Native RBD (UniProt P0DTC2 333-526)
Experiment: BLI

B1: REGN10933 IgG (antibody, V domains shown)
VH: QVQLVESGGGLVKPGGSLRLSCAASGFTFSDYYMSWIRQAPGKGLEWVSYITYSGSTIYYADSVKGRFTISRDNAKSSLYLQMNSLRAEDTAVYYCARDRGTTMVPFDYWGQGTLVTVSS
VL: DIQMTQSPSSLSASVGDRVTITCQASQDITNYLNWYQQKPGKAPKLLIYAASNLETGVPSRFSGSGSGTDFTFTISGLQPEDIATYYCQQYDNLPLTFGGGTKVEIKR
Kd: 1.8 nM
